Values of other authors as cited in PMC12005733.

Target: Calbindin D9k C-terminal split part C-terminal half (Bos taurus) (UniProt P02633)

Kd: 3 pM
Substance: Calbindin D9k N-terminal split part N-terminal half (from UniProt P02633)
